Measurements: publication PMC10841842, “Single-molecule quantitation of RNA-binding protein occupancy and stoichiometry defines a role for Yra1 (Aly/REF) in nuclear mRNP organization” (Cell reports, 2023)

Molecular target: the molecule itself
Experiment: pull-down; mRNP-SiMPull: lysate of cryo-ground yeast cross-linked with 0.2% formaldehyde, PrA-tagged bait pulled down on rabbit IgG Dynabeads at 8°C for 10 min (mTBT16 buffer: 20 mM HEPES-KOH pH 7.4, 12.5 mM KOAc, 2 mM MgCl2, 0.5% Triton X-100, 0.1% Tween 20), eluted by HRV3C protease, captured on a slide by mNG, HA or Yra1 antibody, TIRF imaging; spot counts and photobleaching steps, no-PrA control subtracted …

B1: Hpr1-mNG (natural protein, S. cerevisiae, UniProt P17629 1-752, looked up)
chain: MSNTEELIQNSIGFLQKTFKALPVSFDSIRHEPLPSSMLHASVLNFEWEPLEKNISAIHDRDSLIDIILKRFIIDSMTNAIEDEEENNLEKGLLNSCIGLDFVYNSRFNRSNPASWGNTFFELFSTIIDLLNSPSTFLKFWPYAESRIEWFKMNTSVEPVSLGESNLISYKQPLYEKLRHWNDILAKLENNDILNTVKHYNMKYKLENFLSELLPINEESNFNRSASISALQESDNEWNRSARERESNRSSDVIFAADYNFVFYHLIICPIEFAFSDLEYKNDVDRSLSPLLDAILEIEENFYSKIKMNNRTRYSLEEALNTEYYANYDVMTPKLPVYMKHSNAMKMDRNEFWANLQNIKESDDYTLRPTIMDISLSNTTCLYKQLTQEDDDYYRKQFILQLCFTTNLIRNLISSDETRNFYKSCYLRENPLSDIDFENLDEVNKKRGLNLCSYICDNRVLKFYKIKDPDFYRVIRKLMSSDEKFTTAKIDGFKEFQNFRISKEKIPPPAFDETFKKFTFIKMGNKLINNVWKIPTGLDKIEQEVKKPEGVYEAAQAKWESKISSETSGGEAKDEIIRQWQTLRFLRSRYLFDFDKVNEKTGVDGLFEEPRKVEALDDSFKEKLLYKINQEHRKKLQDAREYKIGKERKKRALEEEASFPEREQKIKSQRINSASQTEGDELKSEQTQPKGEISEENTKIKSSEVSSQDPDSGVAGEFAPQNTTAQLENPKTEDNNAATSNISNGSSTQDMK
notes: Hpr1, THO complex component, S. cerevisiae; End of the tag read from the name; also called THO complex component Hpr1; source: S. cerevisiae BY4741/2-derived tagged strain, in cryo-ground cell lysate; not shown: mNeonGreen (mNG), C-terminal, kept
stoichiometry N: 2

B2: Mft1, mNG-tagged (natural protein, S. cerevisiae, UniProt P33441 1-392, looked up)
chain: MPLSQKQIDQVRTKVHYSEVDTPFNKYLDILGKVTKLTGSIINGTLSNDDSKIEKLTEQNISQLKESAHLRFLDLQSSIDTKKVADENWETCQQETLAKLENLKDKLPDIKSIHSKLLLRIGKLQGLYDSVQVINREVEGLSEGRTSLVVTRAEWEKELGTDLVKFLIEKNYLKLVDPGLKKDSSEERYRIYDDFSKGPKELESINASMKSDIENVRQEVSSYKEKWLRDAEIFGKITSIFKEELLKRDGLLNEAEGDNIDEDYESDEDEERKERFKRQRSMVEVNTIENVDEKEESDHEYDDQEDEENEEEDDMEVDVEDIKEDNEVDGESSQQEDNSRQGNNEETDKETGVIEEPDAVNDAEEADSDHSSRKLGGTTSDFSASSSVEEVK
notes: Mft1, THO complex subunit, S. cerevisiae; also called THO complex subunit Mft1; source: S. cerevisiae BY4741/2-derived tagged strain, in cryo-ground cell lysate
stoichiometry N: 2
